US20260201069A1, “ANTIBODIES THAT SPECIFICALLY BIND MODIFIED OLIGONUCLEOTIDES” (Hoffmann-La Roche Inc., priority 2024, published 2026)

Tests used:
ASO 042 = assay: SPR (BIAcore) binding kinetics and affinity; conditions: analyte ASO 042, bivalent IgG format, 25° C.
Procedure: (§1) In more detail, LNA binding of the antibodies according to the current invention was characterized by surface plasmon resonance (SPR) using a BIAcore instrument with a HEPES-based running and dilution buffer at 25° C. About 100-200 resonance units (RU) of an anti-LNA antibody with an Fc-region of the human IgG1 subclass and the mutations P329G, L234A and L235A (according to Kabat EU index; human IgG Fc-PGLALA) or an anti-LNA Fab fragment with human CL and CH1 (kappa, IgG1 isotype), respectively, was captured on the surface of a Series S Sensor Chip CM3 derivatized by standard amine coupling with either a mouse anti-human IgG Fc-PGLALA antibody or a goat anti-human F(ab′2) antibody with final total surface densities of approximately 5000 RU. Different LNA-modified ASOs were passed over the derivatized SPR chip surface by injecting the respective solutions in a 1:3 dilution series up to a final concentration of 1000 nM. Association was monitored for 3 min and dissociation for 5 min at a flow rate of 30 μl/min each. Bulk refractive index differences were corrected by subtracting blank injections and by subtracting the response obtained from the reference flow cell without captured antibody. Curve fitting was performed using the 1:1 Langmuir binding model within the BIAcore evaluation software.
(§2) To assess the binding specificities and affinities of the LNA-binding antibodies according to the current invention, surface plasmon resonance was used as described, e.g., in WO 2020/141117 and WO 2022/175217.
(§3) To assess the specificities and affinities of LNA-binding antibodies, surface plasmon resonance was done as described in WO 2020/141117 and WO 2022/175217. ASO binding was investigated by surface plasmon resonance (SPR) using a BIAcore T200 instrument (Cytiva). As a running and dilution buffer, HEPES buffered saline (HBS) containing 0.05% PS20 was used, the temperature was set to 25° C. For capturing anti-LNA Fabs or complete anti-LNA antibodies to a Series S Sensor Chip CM3 (Cytiva), either a mouse anti-human IgG antibody (Roche Diagnostics GmbH) or a goat anti-human F(ab′2) antibody (Jackson ImmunoResearch) was immobilized using standard amine coupling chemistry with final total surface densities of approximately 5000 resonance units (RU). The anti-LNA antibodies were captured to the surface by an injection for 30 sec., leading to response levels of approx. 100-200 RU. Different ASO molecules were injected in a 1:3 dilution series up to 1000 nM. Association was monitored for 3 min. and dissociation for 5 min. at a flow rate of 30 μl/min each. Subsequently, the surface was regenerated by injecting 10 mM NaOH (anti-human IgG antibody surface) or 10 mM Glycine pH 1.7 (anti-human IgG F(ab′2) antibody surface) for 60 sec. Bulk refractive index differences were corrected by subtracting blank injections and by subtracting the response obtained from the reference flow cell without captured antibody. Curve fitting was performed using the 1:1 Langmuir binding model within the BIAcore evaluation software.

ASO 297 = assay: SPR (BIAcore) binding kinetics and affinity; conditions: analyte ASO 297; bivalent IgG format; 25° C.; read-out: K
Procedure: as §1, §2, §3

ASO 420 = assay: SPR (BIAcore) binding kinetics and affinity; conditions: analyte ASO 420; bivalent IgG format; 25° C.; read-out: K
Procedure: as §1, §2, §3

ASO 827 = assay: SPR (BIAcore) binding kinetics and affinity; conditions: analyte ASO 827; bivalent IgG format; 25° C.; read-out: K
Procedure: as §1, §2, §3

[1] = tested on: fusion 2489 (antibody-ASO 918 conjugate); assay: SPR (BIAcore) binding kinetics and affinity; conditions: analyte fusion 2489; bivalent IgG format; 25° C.; read-out: K
Procedure: as §1, §2, §3

[2] = tested on: fusion 2899 (antibody-ASO 918 conjugate); assay: SPR (BIAcore) binding kinetics and affinity; conditions: analyte fusion 2899; bivalent IgG format; 25° C.; read-out: K
Procedure: as §1, §2, §3

[3] = tested on: LNA-modified ASOs and antibody-ASO conjugates; assay: SPR binding; conditions: summary in words
Procedure: as §1
Further analyses of the pan anti-LNA antibody according to the invention produced by clone 1.9.21 a trivalent, bispecific format was used. This trivalent, bispecific format comprises an IgG1 Fc-region (with knobs-into-holes-cys1 mutations) to which at one of the N-termini of the Fc-region a germline Fab (DP47; SEQ ID NO: 137 and 138) has been fused and at both of the C-termini of the Fc-region each one anti-LNA Fab (fab 0699) according to the current invention produced by clone 1.9.21 has been fused (fusion 1861). […]
To assess the specificities and affinities of LNA-binding antibodies, surface plasmon resonance was done as described in WO 2020/141117 and WO 2022/175217. […] Association was monitored for 3 min. and dissociation for 5 min. at a flow rate of 30 μl/min each. […]

B1: mAb 5393: anti-LNA antibody produced by clone 1.9.21 in the bivalent standard Y-shaped IgG format (antibody, V domains shown)
VH: QVQLQQSGAELVRPGTSVKVSCKASGYAFTNYLIEWIKQRPGQGLEWIGVINPGSGGTNYNEKFRVKATLTADKSSSTAYMQLSSLTSDDSAVYFCARGGGYYWGQGTLVTVSA
VL: DIVMTQAAPSVPVTPGESVSISCRSSKSLLHSNGNTYLFWFLQRPGQSPQVLIYRMSNLASGVPDRFSGSGSGTAFTLRISRVEAEDVGVYYCMQHLEYPYTFGSGTRLEIK
- Kon (ASO 042; oos = out of specification): oos
- Kd (ASO 042; read-out: K): < 1000 pM
- Kd (ASO 297): 26200 pM
- Kd (ASO 420): 37.9 pM
- Kd (ASO 827): 41.4 pM
- Kd [1]: 116 pM
- Kd [2]: 169 pM
- binding to the tested analytes (ASOs and antibody-ASO conjugates) [3]: binds to all of the tested ASOs and antibody-ASO conjugates with good affinity
